Measurements taken from publication PMC3962721.

Tests used:
DDB2 (FLAG-tagged, in …) [1] = molecular target: T1, DDB2 (FLAG-tagged, in DDB.com);DDB1;Cul4A;Roc1 (Homo sapiens?;Homo sapiens?;Homo …, UniProt Q92466;Q16531;Q13619;P62877 1-427;1-1140;1-759;1-108, |||); assay: EMSA
DDB2 (FLAG-tagged, in …) [2] = molecular target: T1, DDB2 (FLAG-tagged, in …); assay: competition
DDB2 (FLAG-tagged, in …) [3] = molecular target: T1, DDB2 (FLAG-tagged, in …); assay: EMSA; remark: listed apart in the source
DDB2 (FLAG-tagged, in …) [4] = molecular target: T1, DDB2 (FLAG-tagged, in …); assay: competition; remark: listed apart in the source

T1 sequence (Q92466 whole entry, chain 1 of 4): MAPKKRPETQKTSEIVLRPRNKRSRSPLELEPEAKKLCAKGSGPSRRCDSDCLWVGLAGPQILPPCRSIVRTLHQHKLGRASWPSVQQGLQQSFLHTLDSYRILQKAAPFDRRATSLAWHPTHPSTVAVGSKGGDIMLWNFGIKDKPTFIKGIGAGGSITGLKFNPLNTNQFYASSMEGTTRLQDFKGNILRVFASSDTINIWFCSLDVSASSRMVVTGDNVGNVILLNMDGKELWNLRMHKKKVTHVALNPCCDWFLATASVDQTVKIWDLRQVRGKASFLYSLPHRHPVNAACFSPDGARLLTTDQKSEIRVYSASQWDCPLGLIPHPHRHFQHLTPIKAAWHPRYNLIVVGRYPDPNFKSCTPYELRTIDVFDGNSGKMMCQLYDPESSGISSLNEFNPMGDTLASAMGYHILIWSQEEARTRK
T1 sequence (Q16531 whole entry, chain 2 of 4): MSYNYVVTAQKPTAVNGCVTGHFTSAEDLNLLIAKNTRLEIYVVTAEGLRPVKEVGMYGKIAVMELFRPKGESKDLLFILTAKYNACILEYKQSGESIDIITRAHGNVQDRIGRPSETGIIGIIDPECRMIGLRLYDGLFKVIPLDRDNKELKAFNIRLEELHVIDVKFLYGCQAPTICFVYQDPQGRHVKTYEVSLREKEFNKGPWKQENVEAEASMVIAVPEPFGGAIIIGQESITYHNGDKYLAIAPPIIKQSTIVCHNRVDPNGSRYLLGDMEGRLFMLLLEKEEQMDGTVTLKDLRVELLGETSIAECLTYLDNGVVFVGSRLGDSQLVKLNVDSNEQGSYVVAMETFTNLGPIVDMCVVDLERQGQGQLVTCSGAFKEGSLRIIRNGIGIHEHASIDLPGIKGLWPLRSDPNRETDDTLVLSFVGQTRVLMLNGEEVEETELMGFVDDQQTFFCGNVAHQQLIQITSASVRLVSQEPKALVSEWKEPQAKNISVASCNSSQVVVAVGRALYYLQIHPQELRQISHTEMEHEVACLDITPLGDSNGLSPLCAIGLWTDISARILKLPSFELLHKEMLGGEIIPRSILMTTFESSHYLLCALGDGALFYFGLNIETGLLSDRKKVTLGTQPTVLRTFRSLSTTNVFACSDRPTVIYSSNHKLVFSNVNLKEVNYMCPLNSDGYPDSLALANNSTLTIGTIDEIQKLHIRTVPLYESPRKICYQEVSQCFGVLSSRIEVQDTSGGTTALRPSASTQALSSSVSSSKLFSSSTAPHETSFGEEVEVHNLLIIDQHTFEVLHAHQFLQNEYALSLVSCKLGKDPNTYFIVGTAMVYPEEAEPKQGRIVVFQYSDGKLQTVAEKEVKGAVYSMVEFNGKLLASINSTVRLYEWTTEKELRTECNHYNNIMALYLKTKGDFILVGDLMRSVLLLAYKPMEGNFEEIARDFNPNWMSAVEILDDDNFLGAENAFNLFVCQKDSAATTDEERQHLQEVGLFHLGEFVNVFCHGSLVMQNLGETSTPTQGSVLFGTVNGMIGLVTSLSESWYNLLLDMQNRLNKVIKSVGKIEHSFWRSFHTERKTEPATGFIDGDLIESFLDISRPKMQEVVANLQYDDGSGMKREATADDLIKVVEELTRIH
T1 sequence (Q13619 whole entry, chain 3 of 4): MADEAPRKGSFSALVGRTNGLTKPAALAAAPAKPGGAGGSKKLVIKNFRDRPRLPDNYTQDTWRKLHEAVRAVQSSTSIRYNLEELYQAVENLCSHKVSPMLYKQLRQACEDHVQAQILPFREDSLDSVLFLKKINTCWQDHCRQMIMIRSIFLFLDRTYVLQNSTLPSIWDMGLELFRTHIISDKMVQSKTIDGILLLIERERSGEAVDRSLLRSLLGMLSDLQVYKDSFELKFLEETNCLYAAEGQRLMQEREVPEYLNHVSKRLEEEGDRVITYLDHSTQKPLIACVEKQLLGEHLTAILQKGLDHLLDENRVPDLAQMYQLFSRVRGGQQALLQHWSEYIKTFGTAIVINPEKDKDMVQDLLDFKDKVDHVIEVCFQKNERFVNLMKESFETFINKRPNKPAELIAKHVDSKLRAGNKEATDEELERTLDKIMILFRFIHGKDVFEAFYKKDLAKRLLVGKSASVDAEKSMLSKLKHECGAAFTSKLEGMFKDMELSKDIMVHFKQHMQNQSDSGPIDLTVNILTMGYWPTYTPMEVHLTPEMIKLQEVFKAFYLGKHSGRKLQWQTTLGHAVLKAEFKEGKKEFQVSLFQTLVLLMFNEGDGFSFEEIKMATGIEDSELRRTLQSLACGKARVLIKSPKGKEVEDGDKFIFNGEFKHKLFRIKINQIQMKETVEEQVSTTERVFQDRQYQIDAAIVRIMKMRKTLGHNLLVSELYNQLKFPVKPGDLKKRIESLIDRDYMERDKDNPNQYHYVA
T1 sequence (P62877 whole entry, chain 4 of 4): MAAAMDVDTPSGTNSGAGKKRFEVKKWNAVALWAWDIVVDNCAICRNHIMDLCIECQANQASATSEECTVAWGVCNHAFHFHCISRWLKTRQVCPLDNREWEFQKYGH

B1: Bcl-2 probe (BCP1) (dsDNA)
DNA 1: ATTAGGAGCTTGAAGCCTTTCAAT
DNA 2: ATTGAAAGGCTTCAAGCTCCTAAT
binding result (DDB2 (FLAG-tagged, in …) [1]): binds

B2: Ow (unlabeled wild-type BCP1 competitor) (dsDNA)
DNA 1: ATTAGGAGCTTGAAGCCTTTCAAT
DNA 2: ATTGAAAGGCTTCAAGCTCCTAAT
binding result (DDB2 (FLAG-tagged, in …) [2]): binds

B3: MnSOD probe (dsDNA)
DNA 1: GAGGCTAGCCTGCAGCCTCCTTTCTCC
DNA 2: GGAGAAAGGAGGCTGCAGGCTAGCCTC
binding result (DDB2 (FLAG-tagged, in …) [3]): binds

B4: Om (unlabeled mutant BCP1 competitor) (dsDNA)
DNA 1: ATTAGGATATTGAAGCCTTTCAAT
DNA 2: ATTGAAAGGCTTCAATATCCTAAT
binding result (DDB2 (FLAG-tagged, in …) [4]): no binding
